From paper PMC4496674, “Tackling Critical Catalytic Residues in Helicobacter pylori L-Asparaginase” (Biomolecules, 2015)

What was measured:
purified protein [1] = substrate: NC(=O)CC[C@H](N)C(=O)O; test: purified protein; conditions: 50 mM HEPES pH 7.5, 37 °C, sigmoidal, cooperative
purified protein [2] = substrate: NC(=O)C[C@H](N)C(=O)O; test: purified protein; conditions: 50 mM HEPES pH 7.5, 37 °C, hyperbolic

B1: HpASNase (Helicobacter pylori 26695) (protein)
chain: MAQNLPTIALLATGGTIAGSGASASLGSYKSGELGIKELLKAIPSLNRLARIQGEQISNIGSQDMNEEVWFKLAKRAQELLDDSRIQGVVITHGTDTLEESAYFLNLVLRSTKPVVLVGAMRNAASLSADGALNLYNAVSVALNEKSANKGVLVVMDDNIFSAREVIKTHTTHTSTFKALNSGAIGSVYYGKTRYYMQPLRKHTTESEFSLSQLKTPLPKVDIIYTHAGMTPDLFQASLNSHAKGVVIAGVGNGNVSAGFLKAMQEASQMGVVIVRSSRVNSGEITSGEIDDKAFITSDNLNPQKARVLLQLALTKTNNKEKIQEMFEEY
Purified protein [1]
  K0.5: 46.4 ± 4.02 mM
  kcat: 22.1 ± 1.39 s⁻¹
  kcat/Km: 470 ± 100 M⁻¹ s⁻¹
Purified protein [2]
  K0.5: 0.29 ± 0.03 mM
  kcat: 19.3 ± 0.56 s⁻¹
  kcat/Km: 66400 M⁻¹ s⁻¹
